Assay results reported in article PMC7005942.

Biological target: HIV-1 integrase wild type (HIV-1) (UniProt P12497)
Assay: filter binding
Conditions: Filter binding: 20 mM Tris-HCl pH 7.5, 200 mM NaCl, 6 mM MgCl2, 1 mM DTT, 0.1 mg/mL BSA, room temperature, 10 min

## HIV-1 TAR (1-57)
  Kd: > 5 µM
